Experimental data reported in article PMC9482650, “Quantitative fragmentomics allow affinity mapping of interactomes” (Nature Communications, 2022).

T1: APBA2_1, Q99767
T1 sequence (Q99767 563-664, limits assumed, looked up): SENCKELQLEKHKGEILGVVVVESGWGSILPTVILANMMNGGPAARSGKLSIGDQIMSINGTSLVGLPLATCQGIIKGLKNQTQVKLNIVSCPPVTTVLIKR

T2: APBA2_2, Q99767
T2 sequence (Q99767 654-744, limits assumed, looked up): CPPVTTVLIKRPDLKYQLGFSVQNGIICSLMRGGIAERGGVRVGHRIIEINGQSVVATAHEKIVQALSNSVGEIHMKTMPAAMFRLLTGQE

T3: ARHGAP21, Q5T5U3
T3 sequence (Q5T5U3 45-169, limits assumed, looked up): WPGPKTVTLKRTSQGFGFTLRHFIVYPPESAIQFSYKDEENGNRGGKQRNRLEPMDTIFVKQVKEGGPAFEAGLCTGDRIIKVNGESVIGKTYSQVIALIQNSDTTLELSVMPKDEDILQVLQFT

T4: DFNB31_2, Q9P202
T4 sequence (Q9P202 274-371, limits assumed, looked up): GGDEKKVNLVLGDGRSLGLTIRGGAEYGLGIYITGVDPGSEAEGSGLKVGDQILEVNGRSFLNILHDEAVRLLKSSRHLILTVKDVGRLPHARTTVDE

T5: DLG3_1, Q92796
T5 sequence (Q92796 125-227, limits assumed, looked up): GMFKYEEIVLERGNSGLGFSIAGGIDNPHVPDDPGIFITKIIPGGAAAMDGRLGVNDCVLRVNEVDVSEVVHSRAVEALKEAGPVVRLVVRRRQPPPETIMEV

T6: GRIP1_7, Q9Y3R0
T6 sequence (Q9Y3R0 999-1096, limits assumed, looked up): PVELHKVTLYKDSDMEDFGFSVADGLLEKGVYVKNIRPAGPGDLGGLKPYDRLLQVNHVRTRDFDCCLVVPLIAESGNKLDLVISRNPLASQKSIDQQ

T7: LRRC7, Q96NW7
T7 sequence (Q96NW7 1440-1537, limits assumed, looked up): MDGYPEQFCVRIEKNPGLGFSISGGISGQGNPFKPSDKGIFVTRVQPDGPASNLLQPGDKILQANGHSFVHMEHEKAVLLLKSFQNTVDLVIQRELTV

T8: NHERF3_1, Q5T2W1
T8 sequence (Q5T2W1 4-100, limits assumed, looked up): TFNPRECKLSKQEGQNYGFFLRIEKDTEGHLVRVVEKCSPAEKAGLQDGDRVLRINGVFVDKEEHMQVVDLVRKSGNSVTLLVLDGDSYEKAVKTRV

T9: NHERF3_3, Q5T2W1
T9 sequence (Q5T2W1 238-333, limits assumed, looked up): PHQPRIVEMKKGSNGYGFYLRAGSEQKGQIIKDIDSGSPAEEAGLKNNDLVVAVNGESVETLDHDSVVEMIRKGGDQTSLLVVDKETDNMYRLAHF

T10: NHERF3_4, Q5T2W1
T10 sequence (Q5T2W1 373-468, limits assumed, looked up): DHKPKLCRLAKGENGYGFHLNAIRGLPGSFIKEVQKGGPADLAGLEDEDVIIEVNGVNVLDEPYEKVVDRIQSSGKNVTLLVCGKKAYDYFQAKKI

T11: PTPN13_1, Q12923
T11 sequence (Q12923 1088-1188, limits assumed, looked up): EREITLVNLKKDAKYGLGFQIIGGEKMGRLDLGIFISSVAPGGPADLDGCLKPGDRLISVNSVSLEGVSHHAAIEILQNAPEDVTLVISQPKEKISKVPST

T12: SIPA1L2, Q9P2F8
T12 sequence (Q9P2F8 945-1036, limits assumed, looked up): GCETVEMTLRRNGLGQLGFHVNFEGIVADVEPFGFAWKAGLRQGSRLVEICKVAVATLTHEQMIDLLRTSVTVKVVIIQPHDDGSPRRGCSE


Legend:
Assay in all cases: holdup assay
Set-up in all cases: key: below the threshold = too weak to quantify, mostly under pKd 3.1 to 4
Conditions in all cases: plain residues with an end cap or a label only (N-terminal biotin on a linker: ado-ado)
APBA2_1, Q99767 = molecular target: T1, APBA2_1, Q99767
APBA2_2, Q99767 = molecular target: T2, APBA2_2, Q99767
ARHGAP21, Q5T5U3 = molecular target: T3, ARHGAP21, Q5T5U3
DFNB31_2, Q9P202 = molecular target: T4, DFNB31_2, Q9P202
DLG1_2, Q12959 = molecular target: DLG1_2, Q12959
Chain of DLG1_2, Q12959 (Q12959 314-412): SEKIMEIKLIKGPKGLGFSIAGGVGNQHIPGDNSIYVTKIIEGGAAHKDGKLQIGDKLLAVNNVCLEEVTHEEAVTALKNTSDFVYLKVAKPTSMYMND

DLG1_3, Q12959 = molecular target: DLG1_3, Q12959
Chain of DLG1_3, Q12959 (Q12959 457-571): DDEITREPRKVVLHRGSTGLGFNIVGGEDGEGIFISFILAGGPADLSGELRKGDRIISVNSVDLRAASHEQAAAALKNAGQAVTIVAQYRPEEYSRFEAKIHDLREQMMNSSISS

DLG2_2, Q15700 = molecular target: DLG2_2, Q15700
Chain of DLG2_2, Q15700 (Q15700 189-283): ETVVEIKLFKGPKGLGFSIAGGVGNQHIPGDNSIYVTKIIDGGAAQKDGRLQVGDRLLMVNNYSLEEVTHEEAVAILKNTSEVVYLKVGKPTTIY

DLG3_1, Q92796 = molecular target: T5, DLG3_1, Q92796
FRMPD2_1, Q68DX3 = molecular target: FRMPD2_1, Q68DX3
Chain of FRMPD2_1, Q68DX3 (Q68DX3 770-861): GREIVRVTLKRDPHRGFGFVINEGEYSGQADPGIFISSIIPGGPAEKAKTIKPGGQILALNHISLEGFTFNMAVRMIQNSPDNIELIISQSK

FRMPD4, Q14CM0 = molecular target: FRMPD4, Q14CM0
Chain of FRMPD4, Q14CM0 (Q14CM0 67-160): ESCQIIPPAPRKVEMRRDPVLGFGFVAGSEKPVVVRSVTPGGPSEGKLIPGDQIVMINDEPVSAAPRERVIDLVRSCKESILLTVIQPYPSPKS

GIPC2, Q8TF65 = molecular target: GIPC2, Q8TF65
Chain of GIPC2, Q8TF65 (Q8TF65 112-203): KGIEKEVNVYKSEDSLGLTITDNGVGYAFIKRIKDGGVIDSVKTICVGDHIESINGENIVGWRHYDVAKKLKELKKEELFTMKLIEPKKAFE

GRID2IP_1, A4D2P6 = molecular target: GRID2IP_1, A4D2P6
Chain of GRID2IP_1, A4D2P6 (A4D2P6 1-87): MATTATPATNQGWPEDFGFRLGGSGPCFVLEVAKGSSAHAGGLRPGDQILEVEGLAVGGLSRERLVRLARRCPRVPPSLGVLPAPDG

GRIP1_7, Q9Y3R0 = molecular target: T6, GRIP1_7, Q9Y3R0
GRIP2_7, Q9C0E4 = molecular target: GRIP2_7, Q9C0E4
Chain of GRIP2_7, Q9C0E4 (Q9C0E4 934-1023): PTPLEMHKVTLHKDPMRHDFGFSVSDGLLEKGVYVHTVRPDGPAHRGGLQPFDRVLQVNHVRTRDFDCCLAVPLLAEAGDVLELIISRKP

HTRA2, O43464 = molecular target: HTRA2, O43464
Chain of HTRA2, O43464 (O43464 355-458): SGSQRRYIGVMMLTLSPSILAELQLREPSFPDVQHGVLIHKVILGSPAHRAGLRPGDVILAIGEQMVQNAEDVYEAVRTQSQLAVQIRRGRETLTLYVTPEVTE

IL16_4, Q14005 = molecular target: IL16_4, Q14005
Chain of IL16_4, Q14005 (Q14005 1229-1329): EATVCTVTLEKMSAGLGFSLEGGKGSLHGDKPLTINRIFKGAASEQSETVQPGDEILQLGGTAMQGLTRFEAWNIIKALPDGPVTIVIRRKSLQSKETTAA

Inadl_2, Q8NI35 = molecular target: Inadl_2, Q8NI35
Chain of Inadl_2, Q8NI35 (Q8NI35 238-335): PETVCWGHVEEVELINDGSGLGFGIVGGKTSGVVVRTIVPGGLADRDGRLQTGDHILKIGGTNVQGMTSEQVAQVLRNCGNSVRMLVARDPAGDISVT

Inadl_5, Q8NI35 = molecular target: Inadl_5, Q8NI35
Chain of Inadl_5, Q8NI35 (Q8NI35 673-780): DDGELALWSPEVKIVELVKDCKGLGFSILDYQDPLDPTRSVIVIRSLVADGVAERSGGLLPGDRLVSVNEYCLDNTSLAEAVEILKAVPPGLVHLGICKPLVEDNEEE

LRRC7, Q96NW7 = molecular target: T7, LRRC7, Q96NW7
MAGI2_2, Q86UL8 = molecular target: MAGI2_2, Q86UL8
Chain of MAGI2_2, Q86UL8 (Q86UL8 410-522): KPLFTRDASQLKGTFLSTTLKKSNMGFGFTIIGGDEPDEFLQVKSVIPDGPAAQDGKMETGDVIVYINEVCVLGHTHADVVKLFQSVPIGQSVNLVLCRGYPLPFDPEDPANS

MAGI2_3, Q86UL8 = molecular target: MAGI2_3, Q86UL8
Chain of MAGI2_3, Q86UL8 (Q86UL8 600-682): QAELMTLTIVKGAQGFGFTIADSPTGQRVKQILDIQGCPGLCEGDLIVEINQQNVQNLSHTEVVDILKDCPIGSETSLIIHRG

NHERF3_1, Q5T2W1 = molecular target: T8, NHERF3_1, Q5T2W1
NHERF3_3, Q5T2W1 = molecular target: T9, NHERF3_3, Q5T2W1
NHERF3_4, Q5T2W1 = molecular target: T10, NHERF3_4, Q5T2W1
PTPN13_1, Q12923 = molecular target: T11, PTPN13_1, Q12923
SIPA1L2, Q9P2F8 = molecular target: T12, SIPA1L2, Q9P2F8

| pKd (APBA2_1, Q99767) | pKd (APBA2_2, Q99767) | pKd (ARHGAP21, Q5T5U3) | pKd (DFNB31_2, Q9P202) | pKd (DLG1_2, Q12959) | pKd (DLG1_3, Q12959) | pKd (DLG2_2, Q15700) | pKd (DLG3_1, Q92796) | pKd (FRMPD2_1, Q68DX3) | pKd (FRMPD4, Q14CM0) | pKd (GIPC2, Q8TF65) | pKd (GRID2IP_1, A4D2P6) | pKd (GRIP1_7, Q9Y3R0) | pKd (GRIP2_7, Q9C0E4) | pKd (HTRA2, O43464) | pKd (IL16_4, Q14005) | pKd (Inadl_2, Q8NI35) | pKd (Inadl_5, Q8NI35) | pKd (LRRC7, Q96NW7) | pKd (MAGI2_2, Q86UL8) | Binder | other results |
| --- | --- | --- | --- | --- | --- | --- | --- | --- | --- | --- | --- | --- | --- | --- | --- | --- | --- | --- | --- | --- | --- |
| below the threshold | below the threshold | below the threshold | below the threshold | below the threshold | below the threshold | below the threshold | below the threshold | below the threshold | below the threshold | below the threshold | below the threshold | below the threshold | below the threshold | below the threshold | below the threshold | below the threshold | below the threshold | below the threshold | below the threshold | SQPLLVHDDV [KIT, P10721] | pKd (MAGI2_3, Q86UL8): below the threshold; pKd (NHERF3_1, Q5T2W1): below the threshold; pKd (NHERF3_3, Q5T2W1): below the threshold; pKd (NHERF3_4, Q5T2W1): below the threshold; pKd (PTPN13_1, Q12923): below the threshold; pKd (SIPA1L2, Q9P2F8): below the threshold |
| below the threshold | below the threshold | below the threshold | below the threshold | 3.81 | below the threshold | below the threshold | below the threshold | 3.55 | below the threshold | below the threshold | below the threshold | below the threshold | 3.88 | 3.88 | below the threshold | below the threshold | below the threshold | below the threshold | below the threshold | DFKHTKSFII [JAM2, P57087] | pKd (MAGI2_3, Q86UL8): below the threshold; pKd (NHERF3_1, Q5T2W1): below the threshold; pKd (NHERF3_3, Q5T2W1): below the threshold; pKd (NHERF3_4, Q5T2W1): below the threshold; pKd (PTPN13_1, Q12923): 3.52; pKd (SIPA1L2, Q9P2F8): below the threshold |

The next lines start with the binder.

| Binder | pKd (APBA2_1, Q99767) | pKd (APBA2_2, Q99767) | pKd (ARHGAP21, Q5T5U3) | pKd (DFNB31_2, Q9P202) | pKd (DLG1_2, Q12959) | pKd (DLG1_3, Q12959) | pKd (DLG2_2, Q15700) | pKd (DLG3_1, Q92796) | pKd (FRMPD2_1, Q68DX3) | pKd (FRMPD4, Q14CM0) | pKd (GIPC2, Q8TF65) | pKd (GRID2IP_1, A4D2P6) | pKd (GRIP1_7, Q9Y3R0) | pKd (GRIP2_7, Q9C0E4) | pKd (HTRA2, O43464) | pKd (IL16_4, Q14005) | pKd (Inadl_2, Q8NI35) | pKd (Inadl_5, Q8NI35) | pKd (LRRC7, Q96NW7) | pKd (MAGI2_2, Q86UL8) | other results |
| --- | --- | --- | --- | --- | --- | --- | --- | --- | --- | --- | --- | --- | --- | --- | --- | --- | --- | --- | --- | --- | --- |
| PKSNSSKEYV [CLDN7, O95471] | below the threshold | below the threshold | below the threshold | below the threshold | below the threshold | below the threshold | below the threshold | below the threshold | below the threshold | below the threshold | below the threshold | below the threshold | below the threshold | below the threshold | below the threshold | below the threshold | below the threshold | below the threshold | below the threshold | below the threshold | pKd (MAGI2_3, Q86UL8): below the threshold; pKd (NHERF3_1, Q5T2W1): below the threshold; pKd (NHERF3_3, Q5T2W1): below the threshold; pKd (NHERF3_4, Q5T2W1): below the threshold; pKd (PTPN13_1, Q12923): below the threshold; pKd (SIPA1L2, Q9P2F8): below the threshold |
| EFKQTSSFLV [JAM1, Q9Y624] | below the threshold | below the threshold | below the threshold | below the threshold | below the threshold | below the threshold | below the threshold | below the threshold | 3.75 | 3.76 | below the threshold | below the threshold | below the threshold | 3.86 | 3.78 | below the threshold | 3.56 | 3.53 | below the threshold | 3.72 | pKd (MAGI2_3, Q86UL8): 3.54; pKd (NHERF3_1, Q5T2W1): 4.16; pKd (NHERF3_3, Q5T2W1): below the threshold; pKd (NHERF3_4, Q5T2W1): 3.51; pKd (PTPN13_1, Q12923): below the threshold; pKd (SIPA1L2, Q9P2F8): below the threshold |
